Laboratory results as given in patent US20260103488A1.

Biological target: Lck(h) (lymphocyte-specific protein tyrosine kinase) (human) (UniProt P06239)
Experiment: cell-based or functional assay

Chain of Lck(h) (lymphocyte-specific protein tyrosine kinase) (human) (P06239 whole entry): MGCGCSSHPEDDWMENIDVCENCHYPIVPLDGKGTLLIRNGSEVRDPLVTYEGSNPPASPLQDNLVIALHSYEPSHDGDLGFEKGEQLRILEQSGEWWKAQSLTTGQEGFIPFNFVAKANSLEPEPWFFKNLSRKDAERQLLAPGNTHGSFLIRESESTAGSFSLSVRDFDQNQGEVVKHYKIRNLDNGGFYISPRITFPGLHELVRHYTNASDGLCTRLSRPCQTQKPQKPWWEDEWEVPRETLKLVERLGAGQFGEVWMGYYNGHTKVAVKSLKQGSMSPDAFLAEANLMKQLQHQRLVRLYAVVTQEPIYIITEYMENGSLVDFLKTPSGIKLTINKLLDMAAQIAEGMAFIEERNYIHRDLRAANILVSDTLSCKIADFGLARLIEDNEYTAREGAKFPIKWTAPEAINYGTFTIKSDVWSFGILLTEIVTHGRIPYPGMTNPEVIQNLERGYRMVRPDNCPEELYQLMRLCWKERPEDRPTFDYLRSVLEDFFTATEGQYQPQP

## rskaknplyrrrrrrrrr (IKD14800) (peptide)
  Lck activity, percentage relative to control, in vitro kinase assay, peptide 1 µM (% increase in Lck activity): 490
